In publication PMC2680549 (Nature structural & molecular biology, 2008):
Blank lines part the entries; values can stand above or below the binder they belong to.

Legend:
[1] = target: the molecule itself; test: AUC
[2] = target: the molecule itself; test: AUC; remark: listed apart in the source
[3] = target: Hsc70 nucleotide binding domain (human Hsc70 1-381) (human, UniProt P11142 1-381); test: pull-down
Sequence of Hsc70 nucleotide binding domain (human Hsc70 1-381) (P11142 1-381): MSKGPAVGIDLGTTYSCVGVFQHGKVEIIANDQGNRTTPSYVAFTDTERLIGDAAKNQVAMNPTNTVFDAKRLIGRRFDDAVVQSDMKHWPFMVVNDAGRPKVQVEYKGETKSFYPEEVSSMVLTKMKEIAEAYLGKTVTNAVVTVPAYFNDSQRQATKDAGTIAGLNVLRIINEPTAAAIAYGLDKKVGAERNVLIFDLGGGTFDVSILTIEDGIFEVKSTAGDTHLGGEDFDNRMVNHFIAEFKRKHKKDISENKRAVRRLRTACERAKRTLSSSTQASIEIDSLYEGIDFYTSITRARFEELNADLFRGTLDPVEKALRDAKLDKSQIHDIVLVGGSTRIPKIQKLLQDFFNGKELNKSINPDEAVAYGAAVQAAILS

B1: Near full-length murine Bag2 (Bag2 21-210) (domain or fragment, mouse, UniProt Q91YN9 21-210, looked up)
chain: MADRSSRLLESLDQLELRVEALRDAATAVEQEKEILLEMIHSIQNSQDMRQISDGEREELNLTANRLMGRTLTVEVSVETIRNPQQEESLKHATRIIDEVVSKFLDDLGNAKSHLMSLYSACSSEVPPGPVDQKFQSIVIGCALEDQKKIKRRLETLLRNIDNSDKAIKLLEHAKGAGSKSLQNTDGKFN
stoichiometry N [1]: ≥ 4

B2: Mouse Bag2-BNB (murine Bag2 107-189) (domain or fragment, UniProt Q91YN9 107-189, looked up)
chain: EESLKHATRIIDEVVSKFLDDLGNAKSHLMSLYSACSSEVPPGPVDQKFQSIVIGCALEDQKKIKRRLETLLRNIDNSDKAIK
Kd [2]: 4.5 ± 2 µM

binding result [3]: binds
B3: GST-fused full-length human Bag2, wild type (natural protein, UniProt O95816 1-211, looked up)
chain: MAQAKINAKANEGRFCRSSSMADRSSRLLESLDQLELRVEALREAATAVEQEKEILLEMIHSIQNSQDMRQISDGEREELNLTANRLMGRTLTVEVSVETIRNPQQQESLKHATRIIDEVVNKFLDDLGNAKSHLMSLYSACSSEVPHGPVDQKFQSIVIGCALEDQKKIKRRLETLLRNIENSDKAIKLLEHSKGAGSKTLQQNAESRFN
